# Test results as given in paper PMC8298264, “Function of cofactor Akirin2 in the regulation of gene expression in model human neutrophil-like HL60 cells” (Bioscience Reports, 2021).
# System: human HL60 cells
# Test: SWATH-MS proteomics, differential protein representation, akirin2 KO vs WT HL60 cells
# Format: cell-based
# Conditions: SWATH-MS, akirin2 KO vs WT HL60 cells; over-represented in KO
# Outline: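 WT and akirin2 KO HL60 lysates (150 µg, n=3 biological replicates) were FASP trypsin-digested and desalted. A spectral library was built by IDA from 3 µg digests, then 5 µg per sample went to variable-window SWATH DIA over a 120-min 5–30% acetonitrile gradient. Identifications were accepted at 1% global FDR, with total-area-sum normalization.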
Molecule,Fold Change,Log (Fold Change)
"Peroxiredoxin-2 (protein, UniProt P32119 2-198, looked up) Peroxiredoxin-2: ASGNARIGKPAPDFKATAVVDGAFKEVKLSDYKGKYVVLFFYPLDFTFVCPTEIIAFSNRAEDFRKLGCEVLGVSVDSQFTHLAWINTPRKEGGLGPLNIPLLADVTRRLSEDYGVLKTDEGIAYRGLFIIDGKGVLRQITVNDLPVGRSVDEALRLVQAFQYTDEHGEVCPAGWKPGSDTIKPNVDDSKEYFSKHN",2.923,0.4659

# Same assay, conditions: akirin2 KO vs WT HL60 cells; sheet "Over-represented in KO"
Molecule,Fold Change,Log (Fold Change)
"sp¦P28074¦PSB5_HUMAN (protein, UniProt P28074 60-263, looked up) Proteasome subunit beta type-5: TTTLAFKFRHGVIVAADSRATAGAYIASQTVKKVIEINPYLLGTMAGGAADCSFWERLLARQCRIYELRNKERISVAAASKLLANMVYQYKGMGLSMGTMICGWDKRGPGLYYVDSEGNRISGATFSVGSGSVYAYGVMDRGYSYDLEVEQAYDLARRAIYQATYRDAYSGGAVNLYHVREDGWIRVSSDNVADLHEKYSGSTP",1.209,0.08243
"sp¦P10620¦MGST1_HUMAN (protein, UniProt P10620 1-155, looked up) Microsomal glutathione …: MVDLTQVMDDEVFMAFASYATIILSKMMLMSTATAFYRLTRKVFANPEDCVAFGKGENAKKYLRTDDRVERVRRAHLNDLENIIPFLGIGLLYSLSGPDPSTAILHFRLFVGARIYHTIAYLTPLPQPNRALSFFVGYGVTLSMAYRLLKSKLYL",1.217,0.08527
"sp¦Q9UKX7¦NUP50_HUMAN (protein, UniProt Q9UKX7 1-468, looked up) Nuclear pore complex protein …: MAKRNAEKELTDRNWDQEDEAEEVGTFSMASEEVLKNRAIKKAKRRNVGFESDTGGAFKGFKGLVVPSGGGRFSGFGSGAGGKPLEGLSNGNNITSAPPFASAKAAADPKVAFGSLAANGPTTLVDKVSNPKTNGDSQQPSSSGLASSKACVGNAYHKQLAALNCSVRDWIVKHVNTNPLCDLTPIFKDYEKYLANIEQQHGNSGRNSESESNKVAAETQSPSLFGSTKLQQESTFLFHGNKTEDTPDKKMEVASEKKTDPSSLGATSASFNFGKKVDSSVLGSLSSVPLTGFSFSPGNSSLFGKDTTQSKPVSSPFPTKPLEGQAEGDSGECKGGDEEENDEPPKVVVTEVKEEDAFYSKKCKLFYKKDNEFKEKGIGTLHLKPTANQKTQLLVRADTNLGNILLNVLIPPNMPCTRTGKNNVLIVCVPNPPIDEKNATMPVTMLIRVKTSEDADELHKILLEKKDA",1.164,0.06601
"sp¦P13667¦PDIA4_HUMAN (protein, UniProt P13667 21-645, looked up) Protein disulfide-isomerase A4: VAGAEGPDEDSSNRENAIEDEEEEEEEDDDEEEDDLEVKEENGVLVLNDANFDNFVADKDTVLLEFYAPWCGHCKQFAPEYEKIANILKDKDPPIPVAKIDATSASVLASRFDVSGYPTIKILKKGQAVDYEGSRTQEEIVAKVREVSQPDWTPPPEVTLVLTKENFDEVVNDADIILVEFYAPWCGHCKKLAPEYEKAAKELSKRSPPIPLAKVDATAETDLAKRFDVSGYPTLKIFRKGRPYDYNGPREKYGIVDYMIEQSGPPSKEILTLKQVQEFLKDGDDVIIIGVFKGESDPAYQQYQDAANNLREDYKFHHTFSTEIAKFLKVSQGQLVVMQPEKFQSKYEPRSHMMDVQGSTQDSAIKDFVLKYALPLVGHRKVSNDAKRYTRRPLVVVYYSVDFSFDYRAATQFWRSKVLEVAKDFPEYTFAIADEEDYAGEVKDLGLSESGEDVNAAILDESGKKFAMEPEEFDSDTLREFVTAFKKGKLKPVIKSQPVPKNNKGPVKVVVGKTFDSIVMDPKKDVLIEFYAPWCGHCKQLEPVYNSLAKKYKGQKGLVIAKMDATANDVPSDRYKVEGFPTIYFAPSGDKKNPVKFEGGDRDLEHLSKFIEEHATKLSRTKEEL",1.162,0.06526
"sp¦P46926¦GNPI1_HUMAN (protein, UniProt P46926 1-289, looked up) Glucosamine-6-phosphate …: MKLIILEHYSQASEWAAKYIRNRIIQFNPGPEKYFTLGLPTGSTPLGCYKKLIEYYKNGDLSFKYVKTFNMDEYVGLPRDHPESYHSFMWNNFFKHIDIHPENTHILDGNAVDLQAECDAFEEKIKAAGGIELFVGGIGPDGHIAFNEPGSSLVSRTRVKTLAMDTILANARFFDGELTKVPTMALTVGVGTVMDAREVMILITGAHKAFALYKAIEEGVNHMWTVSAFQQHPRTVFVCDEDATLELKVKTVKYFKGLMLVHNKLVDPLYSIKEKETEKSQSSKKPYSD",1.154,0.06211
"sp¦O60925¦PFD1_HUMAN (protein, UniProt O60925 2-122, looked up) Prefoldin subunit 1: AAPVDLELKKAFTELQAKVIDTQQKVKLADIQIEQLNRTKKHAHLTDTEIMTLVDETNMYEGVGRMFILQSKEAIHSQLLEKQKIAEEKIKELEQKKSYLERSVKEAEDNIREMLMARRAQ",1.213,0.08377
"sp¦P25788¦PSA3_HUMAN (protein, UniProt P25788 2-255, looked up) Proteasome subunit alpha …: SSIGTGYDLSASTFSPDGRVFQVEYAMKAVENSSTAIGIRCKDGVVFGVEKLVLSKLYEEGSNKRLFNVDRHVGMAVAGLLADARSLADIAREEASNFRSNFGYNIPLKHLADRVAMYVHAYTLYSAVRPFGCSFMLGSYSVNDGAQLYMIDPSGVSYGYWGCAIGKARQAAKTEIEKLQMKEMTCRDIVKEVAKIIYIVHDEVKDKAFELELSWVGELTNGRHEIVPKDIREEAEKYAKESLKEEDESDDDNM",1.227,0.08878
"sp¦O75083¦WDR1_HUMAN (protein, UniProt O75083 1-606, looked up) WD repeat-containing protein 1: MPYEIKKVFASLPQVERGVSKIIGGDPKGNNFLYTNGKCVILRNIDNPALADIYTEHAHQVVVAKYAPSGFYIASGDVSGKLRIWDTTQKEHLLKYEYQPFAGKIKDIAWTEDSKRIAVVGEGREKFGAVFLWDSGSSVGEITGHNKVINSVDIKQSRPYRLATGSDDNCAAFFEGPPFKFKFTIGDHSRFVNCVRFSPDGNRFATASADGQIYIYDGKTGEKVCALGGSKAHDGGIYAISWSPDSTHLLSASGDKTSKIWDVSVNSVVSTFPMGSTVLDQQLGCLWQKDHLLSVSLSGYINYLDRNNPSKPLHVIKGHSKSIQCLTVHKNGGKSYIYSGSHDGHINYWDSETGENDSFAGKGHTNQVSRMTVDESGQLISCSMDDTVRYTSLMLRDYSGQGVVKLDVQPKCVAVGPGGYAVVVCIGQIVLLKDQRKCFSIDNPGYEPEVVAVHPGGDTVAIGGVDGNVRLYSILGTTLKDEGKLLEAKGPVTDVAYSHDGAFLAVCDASKVVTVFSVADGYSENNVFYGHHAKIVCLAWSPDNEHFASGGMDMMVYVWTLSDPETRVKIQDAHRLHHVSSLAWLDEHTLVTTSHDASVKEWTITY",1.216,0.0848
"sp¦Q15424¦SAFB1_HUMAN (protein, UniProt Q15424 2-915, looked up) Scaffold attachment factor B1: AETLSGLGDSGAAGAAALSSASSETGTRRLSDLRVIDLRAELRKRNVDSSGNKSVLMERLKKAIEDEGGNPDEIEITSEGNKKTSKRSSKGRKPEEEGVEDNGLEENSGDGQEDVETSLENLQDIDIMDISVLDEAEIDNGSVADCVEDDDADNLQESLSDSRELVEGEMKELPEQLQEHAIEDKETINNLDTSSSDFTILQEIEEPSLEPENEKILDILGETCKSEPVKEESSELEQPFAQDTSSVGPDRKLAEEEDLFDSAHPEEGDLDLASESTAHAQSSKADSLLAVVKREPAEQPGDGERTDCEPVGLEPAVEQSSAASELAEASSEELAEAPTEAPSPEARDSKEDGRKFDFDACNEVPPAPKESSTSEGADQKMSSPEDDSDTKRLSKEEKGRSSCGRNFWVSGLSSTTRATDLKNLFSKYGKVVGAKVVTNARSPGARCYGFVTMSTAEEATKCINHLHKTELHGKMISVEKAKNEPVGKKTSDKRDSDGKKEKSSNSDRSTNLKRDDKCDRKDDAKKGDDGSGEKSKDQDDQKPGPSERSRATKSGSRGTERTVVMDKSKGVPVISVKTSGSKERASKSQDRKSASREKRSVVSFDKVKEPRKSRDSESHSRVRERSEREQRMQAQWEREERERLEIARERLAFQRQRLERERMERERLERERMHVEHERRREQERIHREREELRRQQELRYEQERRPAVRRPYDLDRRDDAYWPEAKRAALDERYHSDFNRQDRFHDFDHRDRGRYPDHSVDRREGSRSMMGEREGQHYPERHGGPERHGRDSRDGWGGYGSDKRMSEGRGLPPPPRRDWGDHGRREDDRSWQGTADGGMMDRDHKRWQGGERSMSGHSGPGHMMNRGGMSGRGSFAPGGASRGHPIPHGGMQGGFGGQSRGSRPSDARFTRRY",1.249,0.09669
"sp¦P82979¦SARNP_HUMAN (protein, UniProt P82979 2-210, looked up) SAP domain-containing …: ATETVELHKLKLAELKQECLARGLETKGIKQDLIHRLQAYLEEHAEEEANEEDVLGDETEEEETKPIELPVKEEEPPEKTVDVAAEKKVVKITSEIPQTERMQKRAERFNVPVSLESKKAARAARFGISSVPTKGLSSDNKPMVNLDKLKERAQRFGLNVSSISRKSEDDEKLKKRKERFGIVTSSAGTGTTEDTEAKKRKRAERFGIA",1.173,0.06929
"sp¦P20618¦PSB1_HUMAN (protein, UniProt P20618 29-241, looked up) Proteasome subunit beta type-1: RFSPYVFNGGTILAIAGEDFAIVASDTRLSEGFSIHTRDSPKCYKLTDKTVIGCSGFHGDCLTLTKIIEARLKMYKHSNNKAMTTGAIAAMLSTILYSRRFFPYYVYNIIGGLDEEGKGAVYSFDPVGSYQRDSFKAGGSASAMLQPLLDNQVGFKNMQNVEHVPLSLDRAMRLVKDVFISAAERDVYTGDALRICIVTKEGIREETVSLRKD",1.163,0.06574
"sp¦Q8WU90¦ZC3HF_HUMAN (protein, UniProt Q8WU90 1-426, looked up) Zinc finger CCCH …: MPPKKQAQAGGSKKAEQKKKEKIIEDKTFGLKNKKGAKQQKFIKAVTHQVKFGQQNPRQVAQSEAEKKLKKDDKKKELQELNELFKPVVAAQKISKGADPKSVVCAFFKQGQCTKGDKCKFSHDLTLERKCEKRSVYIDARDEELEKDTMDNWDEKKLEEVVNKKHGEAEKKKPKTQIVCKHFLEAIENNKYGWFWVCPGGGDICMYRHALPPGFVLKKDKKKEEKEDEISLEDLIERERSALGPNVTKITLESFLAWKKRKRQEKIDKLEQDMERRKADFKAGKALVISGREVFEFRPELVNDDDEEADDTRYTQGTGGDEVDDSVSVNDIDLSLYIPRDVDETGITVASLERFSTYTSDKDENKLSEASGGRAENGERSDLEEDNEREGTENGAIDAVPVDENLFTGEDLDELEEELNTLDLEE",1.158,0.06384
"sp¦P55145¦MANF_HUMAN (protein, UniProt P55145 25-182, looked up) Mesencephalic …: LRPGDCEVCISYLGRFYQDLKDRDVTFSPATIENELIKFCREARGKENRLCYYIGATDDAATKIINEVSKPLAHHIPVEKICEKLKKKDSQICELKYDKQIDLSTVDLKKLRVKELKKILDDWGETCKGCAEKSDYIRKINELMPKYAPKAASARTDL",1.173,0.06948
